Data published in patent publication US20120100141A1 (GlaxoSmithKline, published 2012).

What was measured:
Assay in all cases: melanophore functional bioassay, transfected cells (data not shown)
[1] = molecular target: T1, Mouse NPY4R (mouse, UniProt Q61041 1-375)
T1 construct: whole, on cells; also called NPY4R (mouse)
Description: (§1) For assaying purposes cells were washed, trypsinized and resuspended in 0.7×EPG PBS at a concentration of 15×10⁶ cells per ml. 800 μl of cells were gently mixed with 20-40 μg of cDNA and incubated on ice for 20 minutes. […] After 2 hours they were placed in a sealed container in the incubator overnight (25° C., 0% CO2). The following day media was aspirated and 25 μl MAB (Melanophore Assay Buffer) containing 1% DMSO and 10 nM melatonin was added to each well. Cells were incubated for one hour and basal transmittance was measured on a SLT Spectra plate reader at 620 nm. Next, a dilution series (12 point series using 3 fold dilution intervals in MAB) containing 25 μl of a 2× concentration peptides and standards were added directly to each well. Standards included melatonin 10 nM, MSH 200 nM and MAB and were used to establish assay system Minimum, Maximum, and basal response levels, respectively. Following addition of peptides and standards, plates were incubated for 1 hour and transmittance measured as before. Data was analyzed using Robosage (version 7.3.2) by calculating (1−Tf/Ti) where Ti is initial baseline read, and Tf is the response read.

[2] = molecular target: T2, Mouse NPY2R (mouse, UniProt P97295 1-381)
T2 construct: whole, on cells; also called NPY2R (mouse)
T2 sequence (looked up): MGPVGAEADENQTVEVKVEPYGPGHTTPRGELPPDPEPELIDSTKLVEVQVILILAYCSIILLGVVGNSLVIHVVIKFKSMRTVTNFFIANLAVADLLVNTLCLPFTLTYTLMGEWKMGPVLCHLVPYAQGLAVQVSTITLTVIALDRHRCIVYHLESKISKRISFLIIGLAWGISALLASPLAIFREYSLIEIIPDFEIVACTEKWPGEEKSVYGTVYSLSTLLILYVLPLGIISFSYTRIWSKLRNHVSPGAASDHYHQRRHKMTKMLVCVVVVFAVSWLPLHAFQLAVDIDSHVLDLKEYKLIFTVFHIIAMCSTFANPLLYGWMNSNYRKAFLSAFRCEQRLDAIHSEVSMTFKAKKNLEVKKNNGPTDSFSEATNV
Description: as §1

[3] = molecular target: T3, Human NPY1R (human, UniProt P25929 1-384)
T3 construct: whole, on cells; also called NPY1R (human)
T3 sequence (looked up): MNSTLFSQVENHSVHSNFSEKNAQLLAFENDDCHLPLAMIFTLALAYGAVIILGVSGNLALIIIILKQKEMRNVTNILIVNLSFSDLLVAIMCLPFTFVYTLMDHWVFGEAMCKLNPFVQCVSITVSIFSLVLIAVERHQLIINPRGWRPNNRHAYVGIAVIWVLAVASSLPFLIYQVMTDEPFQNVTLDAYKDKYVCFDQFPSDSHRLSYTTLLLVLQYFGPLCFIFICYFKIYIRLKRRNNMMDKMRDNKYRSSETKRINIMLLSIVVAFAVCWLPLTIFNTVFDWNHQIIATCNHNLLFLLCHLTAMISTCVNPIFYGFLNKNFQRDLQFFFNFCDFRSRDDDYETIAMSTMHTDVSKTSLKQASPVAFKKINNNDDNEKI
Description: as §1

[4] = molecular target: T4, Mouse NPY5R (mouse, UniProt O70342 1-466)
T4 construct: whole, on cells; also called NPY5R (mouse)
T4 sequence (looked up): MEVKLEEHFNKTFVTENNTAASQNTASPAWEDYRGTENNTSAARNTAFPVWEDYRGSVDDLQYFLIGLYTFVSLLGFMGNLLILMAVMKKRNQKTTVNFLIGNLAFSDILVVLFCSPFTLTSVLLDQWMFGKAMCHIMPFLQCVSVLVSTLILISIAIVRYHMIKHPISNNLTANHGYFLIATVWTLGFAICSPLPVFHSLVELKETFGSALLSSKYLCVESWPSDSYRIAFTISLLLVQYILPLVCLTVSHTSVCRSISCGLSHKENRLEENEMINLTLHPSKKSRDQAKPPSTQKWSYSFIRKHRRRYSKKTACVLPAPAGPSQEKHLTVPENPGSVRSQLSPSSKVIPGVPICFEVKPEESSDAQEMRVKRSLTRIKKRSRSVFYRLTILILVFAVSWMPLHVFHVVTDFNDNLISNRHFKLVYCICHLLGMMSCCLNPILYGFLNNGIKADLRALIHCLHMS
Description: as §1

[5] = molecular target: T5, Human NPY4R (human, UniProt P50391 1-375)
T5 construct: whole, on cells; also called NPY4R (human)
Description: as §1

[6] = molecular target: T6, Human NPY5R (human, UniProt Q15761 1-445)
T6 construct: whole, on cells; also called NPY5R (human)
T6 sequence (looked up): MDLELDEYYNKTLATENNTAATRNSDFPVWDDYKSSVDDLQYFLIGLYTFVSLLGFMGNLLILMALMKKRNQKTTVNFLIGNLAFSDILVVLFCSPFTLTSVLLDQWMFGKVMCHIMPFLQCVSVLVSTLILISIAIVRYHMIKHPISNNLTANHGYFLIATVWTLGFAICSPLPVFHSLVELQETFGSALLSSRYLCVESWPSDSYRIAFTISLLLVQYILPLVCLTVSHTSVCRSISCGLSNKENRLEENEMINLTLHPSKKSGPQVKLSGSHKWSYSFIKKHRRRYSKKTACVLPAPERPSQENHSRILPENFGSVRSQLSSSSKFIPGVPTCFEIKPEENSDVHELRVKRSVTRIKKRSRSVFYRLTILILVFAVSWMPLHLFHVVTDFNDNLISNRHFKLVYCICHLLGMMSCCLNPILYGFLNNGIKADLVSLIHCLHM
Description: as §1

[7] = molecular target: T7, Human NPY2R (human, UniProt P49146 1-381)
T7 construct: whole, on cells; also called NPY2R (human)
T7 sequence (looked up): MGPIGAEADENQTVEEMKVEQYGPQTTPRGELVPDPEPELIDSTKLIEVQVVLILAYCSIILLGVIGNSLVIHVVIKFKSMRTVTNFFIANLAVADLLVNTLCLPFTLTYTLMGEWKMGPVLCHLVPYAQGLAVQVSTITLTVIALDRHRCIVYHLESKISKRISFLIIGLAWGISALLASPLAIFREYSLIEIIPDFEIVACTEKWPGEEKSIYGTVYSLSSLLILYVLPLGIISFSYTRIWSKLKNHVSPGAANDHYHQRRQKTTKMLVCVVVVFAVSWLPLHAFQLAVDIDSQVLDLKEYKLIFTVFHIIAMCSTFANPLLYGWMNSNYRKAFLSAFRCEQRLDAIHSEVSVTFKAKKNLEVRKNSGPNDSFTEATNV
Description: as §1

[8] = molecular target: T8, Mouse NPY1R (mouse, UniProt Q04573 1-382)
T8 construct: whole, on cells; also called NPY1R (mouse)
T8 sequence (looked up): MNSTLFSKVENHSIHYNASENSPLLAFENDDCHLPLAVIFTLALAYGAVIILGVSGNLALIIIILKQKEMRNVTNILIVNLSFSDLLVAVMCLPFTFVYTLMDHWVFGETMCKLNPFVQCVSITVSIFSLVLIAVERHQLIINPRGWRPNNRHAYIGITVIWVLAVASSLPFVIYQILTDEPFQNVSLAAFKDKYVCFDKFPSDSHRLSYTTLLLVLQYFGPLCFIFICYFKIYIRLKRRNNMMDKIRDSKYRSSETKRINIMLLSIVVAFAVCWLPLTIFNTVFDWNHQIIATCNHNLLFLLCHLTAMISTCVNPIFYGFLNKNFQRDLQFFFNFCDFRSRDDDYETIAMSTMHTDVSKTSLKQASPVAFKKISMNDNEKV
Description: as §1

T5 sequence (P50391 whole entry): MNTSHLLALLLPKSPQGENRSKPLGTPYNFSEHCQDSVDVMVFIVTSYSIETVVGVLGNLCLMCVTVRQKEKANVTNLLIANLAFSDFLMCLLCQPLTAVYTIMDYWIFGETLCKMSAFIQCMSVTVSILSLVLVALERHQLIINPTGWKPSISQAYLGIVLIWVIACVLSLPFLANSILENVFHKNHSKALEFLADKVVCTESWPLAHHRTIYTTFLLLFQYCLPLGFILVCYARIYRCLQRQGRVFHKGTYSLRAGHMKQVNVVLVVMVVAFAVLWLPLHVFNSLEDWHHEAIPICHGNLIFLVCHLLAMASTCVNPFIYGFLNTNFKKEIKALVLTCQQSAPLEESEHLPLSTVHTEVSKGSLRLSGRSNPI
T1 sequence (Q61041 whole entry): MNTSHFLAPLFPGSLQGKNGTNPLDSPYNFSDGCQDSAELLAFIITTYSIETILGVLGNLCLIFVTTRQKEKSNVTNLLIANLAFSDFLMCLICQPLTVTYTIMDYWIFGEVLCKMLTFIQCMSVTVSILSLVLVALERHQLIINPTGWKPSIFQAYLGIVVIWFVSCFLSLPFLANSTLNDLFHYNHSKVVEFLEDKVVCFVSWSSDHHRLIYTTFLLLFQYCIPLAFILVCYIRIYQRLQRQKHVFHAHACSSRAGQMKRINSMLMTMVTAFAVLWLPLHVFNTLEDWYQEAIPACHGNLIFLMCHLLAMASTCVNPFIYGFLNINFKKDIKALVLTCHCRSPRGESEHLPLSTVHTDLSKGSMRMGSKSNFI

binding result [1]: binds
binding result [2]: binds
binding result [3]: binds
binding result [4]: binds
binding result [5]: binds
binding result [6]: binds
binding result [7]: binds
binding result [8]: binds
B1: PYY (3-36) DOM7h-14-10 (R108C) AlbudAb peptide conjugate DMS7605 (other)
chain: DIQMTQSPSSLSASVGDRVTITCRASQWIGSQLSWYQQKPGKAPKLLIMWRSSLQSGVPSRFSGSGSGTDFTLTISSLQPEDFATYYCAQGLRHPKTFGQGTKVEIKC
peptide: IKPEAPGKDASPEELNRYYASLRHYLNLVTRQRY
modifications: C-terminal amide; lysine at position 10 derivatised with the 4 repeat PEG linker to the dAb cysteine; free C-terminal cysteine (R108C) coupled through maleimide to a 4 repeat PEG linker that is attached to the lysine at position 10 of the PYY peptide
notes: Chemical conjugate, not a genetic fusion; The dAb was made in E. coli, the peptide and PEG linker by chemical synthesis; also called DMS7167:PYY3-36; PYY(3-36) AlbudAb
